B1: drosophila GMF (glia maturation factor) (natural protein)
chain: MSDNQICDISNEVLEELKKFRFSKSKNNAALILKVDREKQTVVLDEFIDDISVDELQDTLPGHQPRYVIYTYKMVHDDQRISYPMCFIFYTPRDSQIELQMMYACTKSALQREVDLTRVYEIRELDELTEEWLKAKLK

What was measured:
[1] = biological target: Skeletal muscle actin (rabbit) (UniProt P68135)
[2] = biological target: Arp2/3 complex purified from sheep brain (sheep)
[3] = biological target: Arp2/3 complex purified from sheep brain (sheep); assay: TIRF microscopy of single actin filaments in microfluidics; branch dissociation rate against GMF concentration (up to 1500 nM), 0.3 μM G-actin, branches aged 30 min (ADP-Arp2/3 complex), average 1 pN pulling force; Michaelis-Menten fit, rapid equilibrium between GMF and the branch junction assumed; apparent dissociation constant; 25°C, pH 7.0, 50 mM KCl

Molecule | branch renucleation ratio of branches made with budding yeast Arp2/3 complex on mammalian actin [1] [%] | branch renucleation ratio against GMF concentration (0.3 and 0.6 μM actin): GMF concentration of the half-maximum effect; with 25 nM GMF and 0.6 μM actin the ratio was reduced more than threefold [2] [nM] | Kd [3] [nM]
Arp2/3 complex from Saccharomyces cerevisiae (from UniProt P32381 1-391; P47117 1-449) | < 10 |  | 
B1 |  | < 25 | 260

Source: article PMC10816697
